Results: PMC10295924

Target: SFB-β-catenin (UniProt P35222)
Test: pull-down; HEK293T cells co-transfected with MYC-LEF1, SFB-β-catenin and OTUD7B-V5 or GFP-V5, treated with 20 mM lithium chloride for 24 h; cytoplasmic and nuclear lysates pulled down with S-protein beads; immunoblot, bands quantified with ImageJ

Chain of UniProt P35222 (P35222 whole entry): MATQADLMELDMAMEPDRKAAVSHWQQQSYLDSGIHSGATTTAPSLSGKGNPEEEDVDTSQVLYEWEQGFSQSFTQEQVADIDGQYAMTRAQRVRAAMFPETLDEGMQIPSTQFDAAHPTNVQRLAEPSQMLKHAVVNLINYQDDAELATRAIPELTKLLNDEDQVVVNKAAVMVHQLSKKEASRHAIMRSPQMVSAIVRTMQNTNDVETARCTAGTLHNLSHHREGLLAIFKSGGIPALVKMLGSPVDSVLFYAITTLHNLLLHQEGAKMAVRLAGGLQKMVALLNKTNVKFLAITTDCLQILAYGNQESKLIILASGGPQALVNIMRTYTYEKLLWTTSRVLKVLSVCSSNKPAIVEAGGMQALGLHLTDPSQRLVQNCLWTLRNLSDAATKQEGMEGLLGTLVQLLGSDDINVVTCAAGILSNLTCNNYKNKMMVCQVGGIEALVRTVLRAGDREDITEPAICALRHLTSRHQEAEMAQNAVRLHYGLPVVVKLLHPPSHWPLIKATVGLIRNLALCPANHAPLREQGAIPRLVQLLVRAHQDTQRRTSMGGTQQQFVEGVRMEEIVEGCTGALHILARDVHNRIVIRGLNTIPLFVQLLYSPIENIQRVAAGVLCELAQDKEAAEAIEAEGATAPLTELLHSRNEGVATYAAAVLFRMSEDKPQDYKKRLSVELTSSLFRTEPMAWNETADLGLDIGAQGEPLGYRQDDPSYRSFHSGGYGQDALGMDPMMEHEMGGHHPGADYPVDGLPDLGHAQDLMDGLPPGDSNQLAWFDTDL

fold increase of β-catenin-bound LEF1 in the nucleus with OTUD7B-V5 against GFP-V5: 4.82 fold
Substance: MYC-LEF1 (Lymphoid enhancer-binding factor 1), full length (natural protein)
